Patent US20260049138A1 (Chugai, published 2026)

target: T1, CD3ε homodimer protein (human, UniProt P07766 23-126, limits assumed, sulfo-tag or biotin label in the ECL assays; amine-coupled to the chip in SPR); assay: SPR Biacore T200; CD3ε homodimer on CM4 chip;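 note: Single-residue variant antibodies injected as analyte over CD3ε homodimer immobilized by amine coupling, run at 25 °C in HBS-EP+ buffer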
T1 construct: also called human CD3ε homodimer protein; CD3 (CD3ε)
T1 sequence (P07766 23-126 limits assumed): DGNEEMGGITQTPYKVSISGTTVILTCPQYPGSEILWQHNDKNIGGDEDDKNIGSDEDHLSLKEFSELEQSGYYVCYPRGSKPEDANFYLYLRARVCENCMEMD
Description: An appropriate amount of CD3ε homodimer protein was immobilized onto Sensor chip CM4 (GE Healthcare Japan Corp.) by the amine coupling method. Then, the antibody having an appropriate concentration was injected thereto as an analyte and allowed to interact with the CD3ε homodimer protein on the sensor chip. Then, the sensor chip was regenerated by the injection of 10 mmol/L glycine-HCl (pH 1.5). The assay was conducted at 25° C., and HBS-EP+ (GE Healthcare Japan Corp.) was used as a running buffer. […] Each parameter was calculated using Biacore T200 Evaluation Software (GE Healthcare Japan Corp.).

ratio of amounts bound Z=Y/X (altered form / CE115HA000) | Binder
0.14 | CE115HA000 H96L one-arm antibody (antibody, human IgG1, kappa, L234A L235A, N297A, name in Kabat numbering) heavy: QVQLVESGGGVVQPGRSLRLSCAASGFTFSNAWMHWVRQAPGKGLEWVAQIKAKSNNYATYYAESVKGRFTISRDDSKNSLYLQMNSLKTEDTAVYYCRYVLYGAYYGVDAWGQGTTVTVSSASTKGPSVFPLAPSSKSTSGGTAALGCLVKDYFPEPVTVSWNSGALTSGVHTFPAVLQSSGLYSLSSVVTVPSSSLGTQTYICNVNHKPSNTKVDKKVEPKSCDKTHTCPPCPAPEAAGGPSVFLFPPKPKDTLMISRTPEVTCVVVDVSHEDPEVKFNWYVDGVEVHNAKTKPREEQYASTYRVVSVLTVLHQDWLNGKEYKCKVSNKALPAPIEKTISKAKGQPREPQVYTLPPSRCELTKNQVSLSCAVKGFYPSDIAVEWESNGQPENNYKTTPPVLDSDGSFFLVSKLTVDKSRWQQGNVFSCSVMHEALHNHYTQKSLSLSPDYKDDDDK EPKSSDKTHTCPPCPAPELLGGPSVFLFPPKPKDTLMISRTPEVTCVVVDVSHEDPEVKFNWYVDGVEVHNAKTKPREEQYNSTYRVVSVLTVLHQDWLNGKEYKCKVSNKALPAPIEKTISKAKGQPREPQVCTLPPSRDELTKNQVSLWCLVKGFYPSDIAVEWESNGQPENNYKTTPPVLDSDGSFFLYSKLTVDKSRWQQGNVFSCSVMHEALHNRYTQKSLSLSP light: DIVMTQSPLSLPVTPGEPASISCRSSQSLVHSNRNTYLHWYQQKPGQAPRLLIYKVSNRFSGVPDRFSGSGSGTDFTLKISRVEAEDVGVYYCGQGTQVPYTFGQGTKLEIKRTVAAPSVFIFPPSDEQLKSGTASVVCLLNNFYPREAKVQWKVDNALQSGNSQESVTEQDSKDSTYSLSSTLTLSKADYEKHKVYACEVTHQGLSSPVTKSFNRGEC
0.42 | CE115HA000 H96Q one-arm antibody (antibody, human IgG1, kappa, L234A L235A, N297A, name in Kabat numbering) heavy: QVQLVESGGGVVQPGRSLRLSCAASGFTFSNAWMHWVRQAPGKGLEWVAQIKAKSNNYATYYAESVKGRFTISRDDSKNSLYLQMNSLKTEDTAVYYCRYVQYGAYYGVDAWGQGTTVTVSSASTKGPSVFPLAPSSKSTSGGTAALGCLVKDYFPEPVTVSWNSGALTSGVHTFPAVLQSSGLYSLSSVVTVPSSSLGTQTYICNVNHKPSNTKVDKKVEPKSCDKTHTCPPCPAPEAAGGPSVFLFPPKPKDTLMISRTPEVTCVVVDVSHEDPEVKFNWYVDGVEVHNAKTKPREEQYASTYRVVSVLTVLHQDWLNGKEYKCKVSNKALPAPIEKTISKAKGQPREPQVYTLPPSRCELTKNQVSLSCAVKGFYPSDIAVEWESNGQPENNYKTTPPVLDSDGSFFLVSKLTVDKSRWQQGNVFSCSVMHEALHNHYTQKSLSLSPDYKDDDDK EPKSSDKTHTCPPCPAPELLGGPSVFLFPPKPKDTLMISRTPEVTCVVVDVSHEDPEVKFNWYVDGVEVHNAKTKPREEQYNSTYRVVSVLTVLHQDWLNGKEYKCKVSNKALPAPIEKTISKAKGQPREPQVCTLPPSRDELTKNQVSLWCLVKGFYPSDIAVEWESNGQPENNYKTTPPVLDSDGSFFLYSKLTVDKSRWQQGNVFSCSVMHEALHNRYTQKSLSLSP light: DIVMTQSPLSLPVTPGEPASISCRSSQSLVHSNRNTYLHWYQQKPGQAPRLLIYKVSNRFSGVPDRFSGSGSGTDFTLKISRVEAEDVGVYYCGQGTQVPYTFGQGTKLEIKRTVAAPSVFIFPPSDEQLKSGTASVVCLLNNFYPREAKVQWKVDNALQSGNSQESVTEQDSKDSTYSLSSTLTLSKADYEKHKVYACEVTHQGLSSPVTKSFNRGEC
0.46 | CE115HA000 H96R one-arm antibody (antibody, human IgG1, kappa, L234A L235A, N297A, name in Kabat numbering) heavy: QVQLVESGGGVVQPGRSLRLSCAASGFTFSNAWMHWVRQAPGKGLEWVAQIKAKSNNYATYYAESVKGRFTISRDDSKNSLYLQMNSLKTEDTAVYYCRYVRYGAYYGVDAWGQGTTVTVSSASTKGPSVFPLAPSSKSTSGGTAALGCLVKDYFPEPVTVSWNSGALTSGVHTFPAVLQSSGLYSLSSVVTVPSSSLGTQTYICNVNHKPSNTKVDKKVEPKSCDKTHTCPPCPAPEAAGGPSVFLFPPKPKDTLMISRTPEVTCVVVDVSHEDPEVKFNWYVDGVEVHNAKTKPREEQYASTYRVVSVLTVLHQDWLNGKEYKCKVSNKALPAPIEKTISKAKGQPREPQVYTLPPSRCELTKNQVSLSCAVKGFYPSDIAVEWESNGQPENNYKTTPPVLDSDGSFFLVSKLTVDKSRWQQGNVFSCSVMHEALHNHYTQKSLSLSPDYKDDDDK EPKSSDKTHTCPPCPAPELLGGPSVFLFPPKPKDTLMISRTPEVTCVVVDVSHEDPEVKFNWYVDGVEVHNAKTKPREEQYNSTYRVVSVLTVLHQDWLNGKEYKCKVSNKALPAPIEKTISKAKGQPREPQVCTLPPSRDELTKNQVSLWCLVKGFYPSDIAVEWESNGQPENNYKTTPPVLDSDGSFFLYSKLTVDKSRWQQGNVFSCSVMHEALHNRYTQKSLSLSP light: DIVMTQSPLSLPVTPGEPASISCRSSQSLVHSNRNTYLHWYQQKPGQAPRLLIYKVSNRFSGVPDRFSGSGSGTDFTLKISRVEAEDVGVYYCGQGTQVPYTFGQGTKLEIKRTVAAPSVFIFPPSDEQLKSGTASVVCLLNNFYPREAKVQWKVDNALQSGNSQESVTEQDSKDSTYSLSSTLTLSKADYEKHKVYACEVTHQGLSSPVTKSFNRGEC
0.12 | CE115HA000 H96P one-arm antibody (antibody, human IgG1, kappa, L234A L235A, N297A, name in Kabat numbering) heavy: QVQLVESGGGVVQPGRSLRLSCAASGFTFSNAWMHWVRQAPGKGLEWVAQIKAKSNNYATYYAESVKGRFTISRDDSKNSLYLQMNSLKTEDTAVYYCRYVPYGAYYGVDAWGQGTTVTVSSASTKGPSVFPLAPSSKSTSGGTAALGCLVKDYFPEPVTVSWNSGALTSGVHTFPAVLQSSGLYSLSSVVTVPSSSLGTQTYICNVNHKPSNTKVDKKVEPKSCDKTHTCPPCPAPEAAGGPSVFLFPPKPKDTLMISRTPEVTCVVVDVSHEDPEVKFNWYVDGVEVHNAKTKPREEQYASTYRVVSVLTVLHQDWLNGKEYKCKVSNKALPAPIEKTISKAKGQPREPQVYTLPPSRCELTKNQVSLSCAVKGFYPSDIAVEWESNGQPENNYKTTPPVLDSDGSFFLVSKLTVDKSRWQQGNVFSCSVMHEALHNHYTQKSLSLSPDYKDDDDK EPKSSDKTHTCPPCPAPELLGGPSVFLFPPKPKDTLMISRTPEVTCVVVDVSHEDPEVKFNWYVDGVEVHNAKTKPREEQYNSTYRVVSVLTVLHQDWLNGKEYKCKVSNKALPAPIEKTISKAKGQPREPQVCTLPPSRDELTKNQVSLWCLVKGFYPSDIAVEWESNGQPENNYKTTPPVLDSDGSFFLYSKLTVDKSRWQQGNVFSCSVMHEALHNRYTQKSLSLSP light: DIVMTQSPLSLPVTPGEPASISCRSSQSLVHSNRNTYLHWYQQKPGQAPRLLIYKVSNRFSGVPDRFSGSGSGTDFTLKISRVEAEDVGVYYCGQGTQVPYTFGQGTKLEIKRTVAAPSVFIFPPSDEQLKSGTASVVCLLNNFYPREAKVQWKVDNALQSGNSQESVTEQDSKDSTYSLSSTLTLSKADYEKHKVYACEVTHQGLSSPVTKSFNRGEC
